Test results as given in the nanobody polyreactivity screen of Harvey et al. (2022).

Experiment: yeast display, Sf9 membrane polyspecificity reagent, FACS + sequencing; frameworks hold sequencing errors
Method in brief: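 A synthetic nanobody library was expressed on Saccharomyces cerevisiae BJ5465 by galactose induction for 36–48 hours. The library was stained for 1 hour at 4 °C with 10% biotinylated, detergent-solubilized Sf9 membrane reagent and enriched with streptavidin microbeads before FACS. Low and high (top ~1%) gates were set on anti-HA fluorescence for expression and streptavidin fluorescence for reagent binding, and each polyreactivity label reflects the gate of origin.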

QVQLVESGGGLVQAGGSLRLSSAASGIIFYNYAMGWDRQAPGKEWEFVAAISWSGGSTNYADSVKGRFTISRDTAKNTVDLQMNSLQPEDTAVYYCAAEYYGWYYGREAYWGQGTQVTVSS
polyreactivity (PSR sort gate): low polyreactivity

QVQLVESGGGLVQAGGSLRLSCAASGSTFIIYAMGWYRQAPGKERELVAAISWSGGSTYYADSVKGRFTISRDNAKNTVYLQMNSLKPEDTAVYYCAVVYRTRWSDYDYWGQGTQVTVSS
polyreactivity (PSR sort gate): high polyreactivity

QVQLVESGGGLVQAGGSLRLSCAASGSIFVSNAMGWYRQAPGKERELVAAISYSTSRTYYADSVKGRFTISRDNAKNTVYLQMNSLKPEDTAVYYCAVRVRVADGRSNYWGQGTQVTVSS
polyreactivity (PSR sort gate): high polyreactivity

QVQLVESGGGLVQAGGSLRLSCAASGGIFGYNMGWNRQAPGKEWELVAAITSGGITNYADSVKGRFTISRDNAKNTVYLQMNSLKPQDTAVNYCNRSPGGGKETVLGGDYWGQGTQVTVSS
polyreactivity (PSR sort gate): low polyreactivity

QVQLVESGGGLVQAGVSLRLSCAASGRLFYRYAMGWYRQAPGKERELVAGISRGGSTNYADSVKGRFTISRDNAKNTVYLLMKSLKPEDSAVYYCAADAKRTLSYEFGYWGQGTQVTVSS
polyreactivity (PSR sort gate): high polyreactivity

QVHLVESGGGLVQEGGSLRLSCAASGFTFDSYAMGWYRQAPGKERELVASISSSGSTNYADSVKGRFTISRDNAKNTVYLQMNSLKPEDTGVYYCAAESRYPFIYEYWGQGTQVTVSS
polyreactivity (PSR sort gate): low polyreactivity

QVQLVESGGGLVQAGGSLRLSCAASGLTFYRNVMGWYRQAPGKERELVAVITSGGRTNYADSVKGRFTISRDNAKNTVYLQMNSLKPEDTAVYYCNTALSSRSNKMYYWGQGTQVTVSS
polyreactivity (PSR sort gate): high polyreactivity

QVQLVESGGGLVQAGGSLRLSCAASGYIFVKNAMGWYRQAPGKERELVAAISTRGGRTYYADSVKGRFTISRDNAKNTVYLQMNSLKPEDTAVYYCAAVHQTSYYDANSYGYWGQGTQVTVSS
polyreactivity (PSR sort gate): high polyreactivity

QVQLVESGGGLVQAGGSLRLSCAASGFIFKKYAMGWYRQAPGKERELVAAISGSSTRTYYADSVKGRFTISRDNAKNTVYLQMNSLKPEDTAVYYCAAYYGVGFDYWGQGTQVTVSS
polyreactivity (PSR sort gate): high polyreactivity

QVQLLESGGGLVQAGGSLRLSCAASGRIFPYNAMGWYRQAPGKERELVAAISRSGGRTYYADSVKGRFTISRDNAKNTVYLQRNSLKPEDTAVYYCAAKYQAGENYWGQGTQVTVSS
polyreactivity (PSR sort gate): high polyreactivity

QVQLVESGGGLVQAGGSLRLSCAASGLTFGPYAMGWYRQAPGKERELVAAITSGGNTNYADSVKGRFTISRDNAKNTVYLQMNSLKPEDTAVYYCATSYYLAYRSITPYDYWGQGTQVTVSS
polyreactivity (PSR sort gate): low polyreactivity

QVQLVESGGGLVHAGGSLRLSCAASGSIFYHNPMGWYRQAPGKERELVAAISGRGGSTYYADSVKGRFTISRDNAKHTVYLQMNSLKPEDSAVYYCAADARYQNGGLYYWGQGTHVTVSS
polyreactivity (PSR sort gate): high polyreactivity

QVQLVESGGGLVQAGGSLRLSCAASGSTFPGYAMGWYRQAPGKERELVAAISKRGGSTRYADSVKGRFTISRDNAKNTVYLQMNSLKPEDTAVYYCNNRSQISHYRRHDYWGQGTQVTVSS
polyreactivity (PSR sort gate): high polyreactivity

QVQLVESGGGLVQAGGSLRLSCAASGSIFYPYAMGWYRPAPGKERELVASITINDGSTYYADSVKGRFTISRDNAKNTVYLQMNSLKPEDTAVYYCNVEPVPGFGSEYEYWGQGTQVTVSS
polyreactivity (PSR sort gate): low polyreactivity

QFQLVESVGGLFQAGGSLRLSCDASGIIFIGNAMGWYRQAPGKERELVAAISRRGGRTYYADSVKGRFTISRDNAKNTVYLQMNSLKPEDTAVYYCAKRYYSYGKSGYYYWGQGTQVTVSS
polyreactivity (PSR sort gate): high polyreactivity

QVQLVESGGGLVQAGGSLRLICAASGSTFSYNAMGWYRQAPGKEREFVAAITSSGSSTYYADSVKGRFTISRYNAKNTVYLQMNSLKPEDTAVYYCNAEVLFVAGQVQRNSGDYWGQGTQVTVSS
polyreactivity (PSR sort gate): low polyreactivity

QVQLVESGGGLVQAGGSLRLRCAASGSTLSNYAMGWYRQAPGKERELVAAITWSTGSTYYADSVKGRFTISRDNAKNSVYLQMNSLKPEDTAVYYCNAGSQYLLVGLYDYWGQGTQVTVSS
polyreactivity (PSR sort gate): low polyreactivity

QVQLVESGGGLVQAGGSLRLSCAASGRIFFYAMGWYRQAPGKERELVASITTSGTSTYYADSVKGRFTISRDNAKNTVYLQMNSLKPEDTAVYYCNATSNSIRWYDFYYWGQGTQVTVSS
polyreactivity (PSR sort gate): low polyreactivity

QVQLVESVGGLVHAGGSLRLSCAASGSTFRYNAMGWYRQAPGKDRELVAAISWSGGSTYYADSVKGRFTISRDNAKNTVYFQMNSLIPEDTAVYYCAKVYFWGALSPDKYDEDYWGQGTQVTVSS
polyreactivity (PSR sort gate): low polyreactivity

QVQLVESGGGLVQAGVSLRLSCAASGSTFGRYTMGWYRQAPGKERELVAVITRGGDSTYYADSVKWRFTISRDNAKNTVYLQMNSLKPEDTAVYYCNAETNDWYYQAYLEVEYWGQGTQETVSS
polyreactivity (PSR sort gate): low polyreactivity

QVQLVESGGGLVQAGGSLRLSCAASGFTFPGYAMGWYRQAPGKERELVAAISYSSGSTYYADSVKGRFTISRDNAKNTVYLQMNSLKPEDTAVYYCAAYFSPVGFQYDYWGQGTQVTVSS
polyreactivity (PSR sort gate): high polyreactivity

QVQLVESGGGLVQAGGSLRLSCAASGSTFLYNAMGWYRQAPGKERELVATISSGGGSTNYADSVKGRFTISRDNAKNTVYLQMNSLKPEDTAVYYCAVEGYDSYKDDYWGQGTQVTVSS
polyreactivity (PSR sort gate): low polyreactivity

QVQLVESGGGLVQAGGSLRLSCAASGYTFAWYAMGWYRQAPGKERELVAAITVSGGSTYYADSVKGRFTISRDNAKNTVYVQMNSLKPEDTAVYYCAADYAPLDLYQDSTVYSSGDYWGQGTQVTVSS
polyreactivity (PSR sort gate): low polyreactivity

QFQLVESGGGLVQAGGSLRLSCAASGRIFYYNAMGWDRQAPGKERELVASISTGGGSTYYADSVKGRFTISRDNAKNTVYLQMNSLKTEDTAVYYCAARALTRSVPYGFYYWGQGTQVTVSS
polyreactivity (PSR sort gate): high polyreactivity

QVQLVESGGGLVQAGGSLRLSCAASGITFNRYAMGGYRQAPGKERELVASITSGGRTNYADSVKGRFTISRDNAKNTVYLQMNSLKPEDTAVYYCAVRWVRSRSSSLRKANYYWGQGTIVTVSS
polyreactivity (PSR sort gate): high polyreactivity

QVQLVESGGGLVQAGGSLRLSCAASGIIFYGYAMGWYRQAPGKERELVAAITYSGGSTYYADSVKGRFTISRDNAKNTVYLQMNSLKPEDTEVYYCAAYDAYSPYQALYDYWGQGTQVTVSS
polyreactivity (PSR sort gate): low polyreactivity

QVQLVESGGGLVQAGGSLRLSCAASGFTLAYNAMGWYRQAPGKESELVAAISKSSGSTYYADSVKGRFTISRDNSKNTFYLQMNSLKPEDTAVYYCAAEFYFNGVWYDYWGQGTQVTVSS
polyreactivity (PSR sort gate): high polyreactivity

QVQLVESGGGLVQAGGSLRLSCAASGRIFWVNAMGWYRQAPGKERELVARIRGRSGSTYYADSVKGRFTISRDNAKNTVYLQMHSLKPEDTAVYYCNADFNRKVAGTPEVDYWGQGTQVTVSS
polyreactivity (PSR sort gate): high polyreactivity

QVQLVESGGGLVQAGGSLRLSCAASGSTFYRYAMGCYRQAPGKERELVAAISSRGGSTYYADSVKGRFTISRDNAKNTVYLQMNSLKPEDTAVYYCAAQVYGTAGYYYWGQGTQVTVSS
polyreactivity (PSR sort gate): high polyreactivity

QVQLVESGGGLVQAGGSLRLSCAASGSTFTTYAMGWYRQAPGKERELVAAITSGGTTNYADSVKGRFTISRDNAKNTVYLQMNSLKPEDTAVYYCAARNNVEYLTIYKPYSFGSDSWGQGTQVTVSS
polyreactivity (PSR sort gate): low polyreactivity

QVQLVESGGGLVQAGGSLRLSCAASGSTFALYAMGWYRQAPGKERELVAVITSGGSTYYADSVKGRFTISRDNAKNTVYLQMNSLKPEDTAVYYCAARRHVRKGPLGYWGQGTQVTVSS
polyreactivity (PSR sort gate): high polyreactivity
